The values below come from the supplement of paper PMC10201428.

± gives the standard deviation of the averaged measurements.

This series has as its system VchCAST RNA-guided transposition machinery (E. coli BL21(DE3) host, lacZ target). Nature of the series: relative integration efficiency (T-LR orientation) vs wild-type transposon end (log2 (normalized fold change)); transposon end mutated: right end (5 bp flank + 75 bp right end); higher = more efficient transposition. The essentials: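 Barcoded pools of 1549 left-end or 1849 right-end transposon variants were cloned into a pUC57 mini-transposon donor. Each pool was co-transformed with a T7-driven effector plasmid (CRISPR array, tniQ-cas8-cas7-cas6, tnsA-tnsB-tnsC) into E. coli BL21(DE3) and plated with 0.1 mM IPTG at 37°C for 18 h. Input plasmids and genomic integration junctions were PCR-amplified and Illumina-sequenced, with two biological output replicates and four wild-type barcodes as reference. Relative integration efficiency is output/input barcode abundance fold change, normalised to wild-type barcodes and log-transformed.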
For the sequence “ACATTTGTTGATACAACCATAAAATGATAATTACACCCATAAATTGATAATTATCACACCCATAAATTGATATTGCCTCTTCATGGTCTAAACTTCAGTCCTGGGCATCAATTTTCAGCACCGACAC”, the “relative integration efficiency (log2)” value is -0.163 ± 0.029.
Turning to “ACATTTGTTGATACAACCATAACATGATAATTACACCCATAACTTGATAATTATCACACCCATAACTTGATATTGCCTCTGATCATAGTCAGACCAACATTGCTACGACCCGTATTCGCACCGACAC”, the “relative integration efficiency (log2)” value is -0.127 ± 0.35.
The figure for “ACATTTGTTGATACACCCATAAATTGATAATTACACCCATAAATTGATATTGCTCACAACCATAAAATGATAATTACTCTGATCATAGTCAGACCAACATTGCTACGACCCGTATTCGCACCGACAC” is -0.204 ± 0.23; for “ACATTTGTTGATACAACCATTAAATGATAATTCCACCCAAAAATTGATAATTATCACACCCAATTTAACTATAACGCTCTGATCATAGTCAGACCAACATTGCTACGACCCGTATTCGCACCGACAC” it is 2.42 ± 0.24; for “ACATTTGTTGATACAACCATCAAATGGTAATTCCACCCCTAAATTGATAATTATCACACCCAATTTAACTATAACGCTCTGATCATAGTCAGACCAACATTGCTACGACCCGTATTCGCACCGACAC” it is -2.59 ± 0.29.
Turning to “ACATTTGTTGATATAATTATCATTTTATGGTTGCAACCATAAAATGATAATTATCACAACCATAAAATGATAATTACTCTGATCATAGTCAGACCAACATTGCTACGACCCGTATTCGCACCGACAC”, the “relative integration efficiency (log2)” value is -4.32 ± 2.7.
For “ACATTTGTGGATCCAACCATAAAATGATAATTACACCCATAAATTGATAATTATCACACCCAATTTAACTATAACGCTCTGATCATAGTCAGACCAACATTGCTACGACCCGTATTCGCACCGACAC” the value was 2.06 ± 0.17.
For “ACATTTGTTGATACAACCATAAAATGATCATTACACCCATCAATTGATAATTATCACACCCCATTTAACTATAACGCTCTGATCATAGTCAGACCAACATTGCTACGACCCGTATTCGCACCGACAC” the value was 0.914 ± 0.34; for “ACATTTGTTGATACAACCATAAAATGATCATTACACCCATCAATTGATAATTATCACACCCAATTTAACTATAACGCTCTGATCATAGTCAGACCAACATTGCTACGACCCGTATTCGCACCGACAC”, 0.697 ± 0.18; for “ACATTTGTTGATAGAACCATAAAATGATAATTAGACCCATAAATTGATAATTATCAGACCCATAAATTGATATTGCCTCTGATCATAGTCAGACCAACATTGCTACGACCCGTATTCGCACCGACAC”, -0.628 ± 0.11.
The figure for “ACATTTGTTGATACAACCATAAAATGATAATTACACCCTAAAATTGATAATTATCACACCCATAAATTGATATTGCCTCTGATCATAGTCAGACCAACATTGCTACGACCCGTATTCGCACCGACAC” is -1.14 ± 0.11; for “ACATTTGTTGATACAACCATAAAATGATAATTAACAAACGCCCGGTCGCCGGCTCACACCCATAAATTGATATTGCCTCTGATCATAGTCAGACCAACATTGCTACGACCCGTATTCGCACCGACAC” it is -0.997 ± 0.22.
In the case of “ACATTTGTTGATACAACCATAAAATGATAATTACACCCATAAATTGATAATTATCACACCCATAAATTGATATTGCCTCTGATCATTTACTTTTGGTTACATATTTAGTCAGACCAAGCACCGACAC”, the “relative integration efficiency (log2)” value was 0.713 ± 0.049.
With “ACATTTGTTGATACAACCATAAAATGATCCGGCCACCCATAAATTGATCCGGCTCACACCCATAAATTGATCGGTACTCTGATCATAGTCAGACCAACATTGCTACGACCCGTATTCGCACCGACAC”, the “relative integration efficiency (log2)” value was -0.827 ± 0.14.
Turning to “ACATTTGTTGATACAACCATATATTGATATCTCCAACCATAAAGTGATATTTATCACAACCATAAAATGATAATTACTCTGATCATAGTCAGACCAACATTGCTACGACCCGTATTCGCACCGACAC”, the “relative integration efficiency (log2)” value was -0.762 ± 0.065.
The figure for “ACATTAGTTCATACAACCATAAAATGATAATTACACCCATAAATGGATCATTATCACACCCAATTTAACTATAACGCTCTGATCATAGTCAGACCAACATTGCTACGACCCGTATTCGCACCGACAC” is -7.73 ± 1.7.
For “ACATTTGTTGATACAACCATAAGTTGATATTTTCAACCATAAAGTGATATTTATCACAACCATATATTGATATCTCCTCTGATCATAGTCAGACCAACATTGCTACGACCCGTATTCGCACCGACAC” the value was -0.347 ± 0.053; for “ACATTTGTTGATACAACCATAAAATGATAATTACACCCATAAATTGATAATTATCACAGGGTTAAATTGATATTGCCTCTGATCATAGTCAGACCAACATTGCTACGACCCGTATTCGCACCGACAC”, 2.33 ± 0.045; for “ACATTTGTTGATACAACCATAAAATGATAATTACACCCATAAATTGATAATTAGACAACCCATAAATTGATATTGCCTCTGATCATAGTCAGACCAACATTGCTACGACCCGTATTCGCACCGACAC”, 0.737 ± 0.02.
The figure for “ACATTAGTTCATACAACCATAAAATGATAATTACACCCATAAATTCATCATTATCACACCCAATTTAACTATAACGCTCTGATCATAGTCAGACCAACATTGCTACGACCCGTATTCGCACCGACAC” is -5.32 ± 0.75; for “ACATTTGTTGATACAACCATAAAATGATAATTACACCCATAAATTGATAATTATCACACCCATAAATTGATATTGCCTCTCGCGAGAGGCCGGCAGCCGTCTGGCGTCGGGTGGCGGGCACCGACAC” it is 0.646 ± 0.53; for “ACATTTGTTGATACAACCATAAAATGATAATTACACCCATAAATTGATAATGCGACACAAACGCCCGGTCGCGGTAAGAGGATCATAGTCAGACCAACATTGCTACGACCCGTATTCGCACCGACAC” it is 2.69 ± 0.1.
Turning to “ACATTTGTTGATACAACCATAAAAGGATAATTACCCCCATAAATTGATAATTATCACACCCAATTTAACTATAACGCTCTGATCATAGTCAGACCAACATTGCTACGACCCGTATTCGCACCGACAC”, the “relative integration efficiency (log2)” value was determined as 1.37 ± 0.093.
For “ACATTTCTCGATACAACCATAAAATGATAATTACACCCATAAATGGATCATTATCACACCCAATTTAACTATAACGCTCTGATCATAGTCAGACCAACATTGCTACGACCCGTATTCGCACCGACAC” the value was 0.0432 ± 0.045; for “ACATTTCATGATACAACCATAAAATGATAATTACACCCATAAATTGATAATTATCACACCCATAAATTGATATTGCCTCTGATCATAGTCAGACCAACATTGCTACGACCCGTATTCGCACCGACAC”, -5.68 ± 0.91.
